Experimental data reported in article PMC6555819, “Comprehensive study of nuclear receptor DNA binding provides a revised framework for understanding receptor specificity”.

Columns and labels:
PXR:RXRa = PXR:RXRa (Homo sapiens, UniProt O75469;P19793 full;full); experiment: no ligand; PBM; 270 nM : 90 nM RXRa; PBS pH 7.4, 2% milk, 0.02% Triton X-100, 1 mM DTT, BSA, 0.4 mg/ml salmon testes DNA; conditions: tags: His kept;His cleaved; copies: 1;1; label: surface-attached array probe
In short: (§1)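 Random background probes are the reference for binding z-scores. These scores derive from regression-normalized fluorescence on custom Agilent 4×180K protein-binding microarrays incubated 1 h with ligand-free nuclear receptor dimers. Binding was detected with antibodies against each partner (one per run).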

VDR:RXRa = VDR:RXRa (Homo sapiens, UniProt P11473;P19793 full;full); experiment: as above; conditions: tags: His kept;His cleaved; copies: 1;1; label: surface-attached array probe
In short: as §1

PPARa:RXRa = PPARa:RXRa (Homo sapiens, UniProt Q07869;P19793 full;full); experiment: as above; conditions: tags: GST kept;His cleaved; copies: 1;1; label: surface-attached array probe
In short: as §1

RARa:RXRa = RARa:RXRa (Homo sapiens, UniProt P10276;P19793 full;full); experiment: as above; conditions: tags: His kept;His cleaved; copies: 1;1; label: surface-attached array probe
In short: as §1

LXRb:RXRa = LXRb:RXRa (Homo sapiens, UniProt P55055;P19793 full;full); experiment: as above; conditions: tags: His kept;His cleaved; copies: 1;1; label: surface-attached array probe
In short: as §1

PPARg:RXRa = PPARg:RXRa (Homo sapiens, UniProt P37231;P19793 full;full); experiment: no ligand; PBM; 180 nM : 90 nM RXRa; PBS pH 7.4, 2% milk, 0.02% Triton X-100, 1 mM DTT, BSA, 0.4 mg/ml salmon testes DNA; conditions: tags: His kept;His cleaved; copies: 1;1; label: surface-attached array probe
RXRa = RXRa (Homo sapiens, UniProt P19793); experiment: no ligand; PBM; 180 nM; PBS pH 7.4, 2% milk, 0.02% Triton X-100, 1 mM DTT, BSA, 0.4 mg/ml salmon testes DNA; conditions: tags: His cleaved; chain copies: 2; label: surface-attached array probe
FXR:RXRa = FXR:RXRa (Homo sapiens, UniProt Q96RI1;P19793 full;full); experiment: no ligand; PBM; 270 nM : 90 nM RXRa; PBS pH 7.4, 2% milk, 0.02% Triton X-100, 1 mM DTT, BSA, 0.4 mg/ml salmon testes DNA; conditions: tags: His kept;His cleaved; copies: 1;1; label: surface-attached array probe
In short: as §1

LXRa:RXRa = LXRa:RXRa (Homo sapiens, UniProt Q13133;P19793 full;full); experiment: as above; conditions: tags: His kept;His cleaved; copies: 1;1; label: surface-attached array probe
In short: as §1

RARg:RXRa = RARg:RXRa (Homo sapiens, UniProt P13631;P19793 full;full); experiment: as above; conditions: tags: His kept;His cleaved; copies: 1;1; label: surface-attached array probe
In short: as §1

RARb:RXRa = RARb:RXRa (Homo sapiens, UniProt P10826;P19793 full;full); experiment: as above; conditions: tags: His kept;His cleaved; copies: 1;1; label: surface-attached array probe
In short: as §1

Chain of RARa:RXRa (P10276 whole entry, chain 1 of 2): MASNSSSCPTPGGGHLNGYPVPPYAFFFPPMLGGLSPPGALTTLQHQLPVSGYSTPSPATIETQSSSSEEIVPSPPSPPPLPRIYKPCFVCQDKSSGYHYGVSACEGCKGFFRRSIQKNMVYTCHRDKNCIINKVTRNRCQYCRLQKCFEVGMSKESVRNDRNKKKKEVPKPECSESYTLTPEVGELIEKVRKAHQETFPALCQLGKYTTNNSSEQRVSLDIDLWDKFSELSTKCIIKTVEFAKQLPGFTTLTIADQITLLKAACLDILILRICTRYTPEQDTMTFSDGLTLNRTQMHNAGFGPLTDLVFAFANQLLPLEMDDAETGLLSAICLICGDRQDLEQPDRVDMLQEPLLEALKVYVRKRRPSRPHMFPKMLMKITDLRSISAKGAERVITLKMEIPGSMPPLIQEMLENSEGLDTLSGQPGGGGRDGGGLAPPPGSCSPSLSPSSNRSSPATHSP
Chain of RARa:RXRa (P19793 whole entry, chain 2 of 2): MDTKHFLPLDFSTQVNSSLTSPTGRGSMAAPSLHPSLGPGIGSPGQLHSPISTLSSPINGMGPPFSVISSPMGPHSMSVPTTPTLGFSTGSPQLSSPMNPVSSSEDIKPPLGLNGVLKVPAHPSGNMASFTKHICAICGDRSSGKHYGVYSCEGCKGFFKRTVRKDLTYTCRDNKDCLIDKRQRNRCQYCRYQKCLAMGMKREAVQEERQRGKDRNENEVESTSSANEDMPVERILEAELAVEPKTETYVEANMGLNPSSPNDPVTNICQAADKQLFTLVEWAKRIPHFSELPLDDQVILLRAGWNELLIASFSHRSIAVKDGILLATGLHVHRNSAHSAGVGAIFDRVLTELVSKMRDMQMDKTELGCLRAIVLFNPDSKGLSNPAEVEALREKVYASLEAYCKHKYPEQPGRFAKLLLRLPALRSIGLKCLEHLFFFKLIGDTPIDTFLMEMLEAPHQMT
Chain of RXRa (P19793 whole entry): as the sequence (P19793 whole entry, chain 2 of 2) above
Chain of PXR:RXRa (O75469 whole entry, chain 1 of 2): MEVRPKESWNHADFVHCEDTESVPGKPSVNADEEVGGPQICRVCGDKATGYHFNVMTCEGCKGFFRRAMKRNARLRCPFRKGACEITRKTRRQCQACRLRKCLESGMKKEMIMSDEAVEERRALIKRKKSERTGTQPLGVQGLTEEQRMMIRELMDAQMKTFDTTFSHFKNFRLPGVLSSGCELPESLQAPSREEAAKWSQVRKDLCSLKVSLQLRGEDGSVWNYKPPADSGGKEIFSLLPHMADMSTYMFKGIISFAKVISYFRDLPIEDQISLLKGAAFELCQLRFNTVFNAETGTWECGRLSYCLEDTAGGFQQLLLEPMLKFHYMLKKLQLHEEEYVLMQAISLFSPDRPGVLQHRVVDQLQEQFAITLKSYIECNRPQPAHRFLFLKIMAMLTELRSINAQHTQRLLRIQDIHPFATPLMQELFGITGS
Chain of PXR:RXRa (P19793 whole entry, chain 2 of 2): as the sequence (P19793 whole entry, chain 2 of 2) above
Chain of PPARa:RXRa (Q07869 whole entry, chain 1 of 2): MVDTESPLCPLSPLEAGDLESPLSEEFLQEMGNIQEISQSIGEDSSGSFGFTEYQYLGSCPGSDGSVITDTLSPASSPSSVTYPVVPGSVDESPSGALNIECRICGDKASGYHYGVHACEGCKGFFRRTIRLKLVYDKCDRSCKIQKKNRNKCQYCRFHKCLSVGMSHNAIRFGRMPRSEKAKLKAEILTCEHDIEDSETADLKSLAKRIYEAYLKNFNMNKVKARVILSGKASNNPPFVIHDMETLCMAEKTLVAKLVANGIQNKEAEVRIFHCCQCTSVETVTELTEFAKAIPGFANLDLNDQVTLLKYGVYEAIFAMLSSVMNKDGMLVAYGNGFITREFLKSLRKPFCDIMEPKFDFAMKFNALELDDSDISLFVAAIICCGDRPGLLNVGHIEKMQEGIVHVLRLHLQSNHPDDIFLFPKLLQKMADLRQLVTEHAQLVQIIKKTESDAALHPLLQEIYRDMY
Chain of PPARa:RXRa (P19793 whole entry, chain 2 of 2): as the sequence (P19793 whole entry, chain 2 of 2) above
Chain of RARb:RXRa (P10826 whole entry, chain 1 of 2): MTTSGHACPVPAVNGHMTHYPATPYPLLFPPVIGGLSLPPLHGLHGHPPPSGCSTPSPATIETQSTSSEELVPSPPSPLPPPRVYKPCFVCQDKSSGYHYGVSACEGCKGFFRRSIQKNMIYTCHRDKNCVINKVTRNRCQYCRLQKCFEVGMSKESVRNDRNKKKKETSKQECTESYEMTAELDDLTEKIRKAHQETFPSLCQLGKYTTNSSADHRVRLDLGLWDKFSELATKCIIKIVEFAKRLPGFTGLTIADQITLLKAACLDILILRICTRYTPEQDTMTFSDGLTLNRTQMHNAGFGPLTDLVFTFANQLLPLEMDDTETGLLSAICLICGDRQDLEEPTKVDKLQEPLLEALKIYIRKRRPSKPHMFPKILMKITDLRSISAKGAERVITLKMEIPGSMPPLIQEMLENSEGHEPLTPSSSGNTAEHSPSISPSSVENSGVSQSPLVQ
Chain of RARb:RXRa (P19793 whole entry, chain 2 of 2): as the sequence (P19793 whole entry, chain 2 of 2) above

Binder	binding signal (PXR:RXRa)	binding signal (VDR:RXRa)	binding signal (PPARa:RXRa)	binding signal (RARa:RXRa)	binding signal (LXRb:RXRa)	binding signal (PPARg:RXRa)	binding signal (RXRa)	binding signal (FXR:RXRa)	binding signal (LXRa:RXRa)	binding signal (RARg:RXRa)	binding signal (RARb:RXRa)
NRC3_wobSeed89_DR3_T13C_o1 (dsDNA) DNA 1: GCCTATGTAGGTCAAGGGGGTCATTCAGTTTGAAAGGCGATTGACAGCGTAGAATGAAGG DNA 2: CCTTCATTCTACGCTGTCAATCGCCTTTCAAACTGAATGACCCCCTTGACCTACATAGGC	6.79 PBM z-score against 500 random probes	8.32 PBM z-score against 500 random probes	6.84 PBM z-score against 500 random probes	7.29 PBM z-score against 500 random probes	6.92 PBM z-score against 500 random probes	11.1 PBM z-score against 500 random probes					
NRC3_wobSeed36_DR1_T20C_o1 (dsDNA) DNA 1: GCCCGACTGGGGCAAAGGTCACCATACTCAGTACGAGCGATTGACAGCGTAGAATGAAGG DNA 2: CCTTCATTCTACGCTGTCAATCGCTCGTACTGAGTATGGTGACCTTTGCCCCAGTCGGGC			6.53 PBM z-score against 500 random probes	7.41 PBM z-score against 500 random probes		12.5 PBM z-score against 500 random probes	8.25 PBM z-score against 500 random probes				
NRC3_random_hg19_307_o1 (dsDNA) DNA 1: GCATGTTAGAGCTCATGGAGAAGTGTCCTATGTGATGCGATTGACAGCGTAGAATGAAGG DNA 2: CCTTCATTCTACGCTGTCAATCGCATCACATAGGACACTTCTCCATGAGCTCTAACATGC				-0.77 PBM z-score against 500 random probes	-0.8 PBM z-score against 500 random probes	0.17 PBM z-score against 500 random probes					
NRC3_wobSeed34_DR1_G14A_o1 (dsDNA) DNA 1: GCATCGAAAGGTCAAAGGTGAGTATACCCACCCGAAGCGATTGACAGCGTAGAATGAAGG DNA 2: CCTTCATTCTACGCTGTCAATCGCTTCGGGTGGGTATACTCACCTTTGACCTTTCGATGC	6.57 PBM z-score against 500 random probes		7.53 PBM z-score against 500 random probes	8.66 PBM z-score against 500 random probes	6.85 PBM z-score against 500 random probes	10 PBM z-score against 500 random probes	10.1 PBM z-score against 500 random probes	8.87 PBM z-score against 500 random probes	7.65 PBM z-score against 500 random probes	8.43 PBM z-score against 500 random probes	6.19 PBM z-score against 500 random probes
NRC3_wobSeed44_DR1_A18G_o1 (dsDNA) DNA 1: GCTGAATGAGGTTAAAGGTCAGGGAACGTGGCGTCGGCGATTGACAGCGTAGAATGAAGG DNA 2: CCTTCATTCTACGCTGTCAATCGCCGACGCCACGTTCCCTGACCTTTAACCTCATTCAGC	6.68 PBM z-score against 500 random probes		6.96 PBM z-score against 500 random probes	9.15 PBM z-score against 500 random probes		11.9 PBM z-score against 500 random probes	9.53 PBM z-score against 500 random probes				
NRC3_wobSeed121_DR5_G18A_o1 (dsDNA) DNA 1: GCCAAACTAGGTCACCGAAAGGTCAAAGTCCGCATGGCGATTGACAGCGTAGAATGAAGG DNA 2: CCTTCATTCTACGCTGTCAATCGCCATGCGGACTTTGACCTTTCGGTGACCTAGTTTGGC	6.93 PBM z-score against 500 random probes		6.77 PBM z-score against 500 random probes	8.55 PBM z-score against 500 random probes	6.47 PBM z-score against 500 random probes	10.5 PBM z-score against 500 random probes			6.91 PBM z-score against 500 random probes		5.67 PBM z-score against 500 random probes
NRC3_wobSeed73_DR3_C28T_o1 (dsDNA) DNA 1: GCCAAACTAGGTCACAGAGGTCAAAGTTCGTGCGTAGCGATTGACAGCGTAGAATGAAGG DNA 2: CCTTCATTCTACGCTGTCAATCGCTACGCACGAACTTTGACCTCTGTGACCTAGTTTGGC	7.41 PBM z-score against 500 random probes			8.8 PBM z-score against 500 random probes		10.8 PBM z-score against 500 random probes	8.65 PBM z-score against 500 random probes				
NRC3_random_hg19_6_o1 (dsDNA) DNA 1: GCACTCAGAGAGTTGAAGTGATTTGCCCAAGACCACGCGATTGACAGCGTAGAATGAAGG DNA 2: CCTTCATTCTACGCTGTCAATCGCGTGGTCTTGGGCAAATCACTTCAACTCTCTGAGTGC		-0.28 PBM z-score against 500 random probes		0.23 PBM z-score against 500 random probes		0.15 PBM z-score against 500 random probes					
NRC3_wobSeed41_DR1_T13C_o1 (dsDNA) DNA 1: GCATATGTAGGTCAAGGGTCATTCAGGTTGGTTCGCGCGATTGACAGCGTAGAATGAAGG DNA 2: CCTTCATTCTACGCTGTCAATCGCGCGAACCAACCTGAATGACCCTTGACCTACATATGC	6.6 PBM z-score against 500 random probes	6.57 PBM z-score against 500 random probes	7.55 PBM z-score against 500 random probes	7.96 PBM z-score against 500 random probes	6.03 PBM z-score against 500 random probes	13.1 PBM z-score against 500 random probes	9.04 PBM z-score against 500 random probes				
NRC3_wobSeed41_DR1_G16A_o1 (dsDNA) DNA 1: GCATATGTAGGTTAAAGGTCATTCAGGTTGGTTCGCGCGATTGACAGCGTAGAATGAAGG DNA 2: CCTTCATTCTACGCTGTCAATCGCGCGAACCAACCTGAATGACCTTTAACCTACATATGC	6.71 PBM z-score against 500 random probes	6.82 PBM z-score against 500 random probes	7.09 PBM z-score against 500 random probes	8.42 PBM z-score against 500 random probes	5.91 PBM z-score against 500 random probes	13.4 PBM z-score against 500 random probes	9.21 PBM z-score against 500 random probes				
NRC3_wobSeed39_DR1_A19T_o1 (dsDNA) DNA 1: GCCGAACTAGGTCAAAGGTCAGTGAAAGGCGACGTAGCGATTGACAGCGTAGAATGAAGG DNA 2: CCTTCATTCTACGCTGTCAATCGCTACGTCGCCTTTCACTGACCTTTGACCTAGTTCGGC	6.52 PBM z-score against 500 random probes		7.58 PBM z-score against 500 random probes	8.51 PBM z-score against 500 random probes		14 PBM z-score against 500 random probes	9.27 PBM z-score against 500 random probes			8.09 PBM z-score against 500 random probes	5.46 PBM z-score against 500 random probes
NRC3_wobSeed26_DR1_T9C_o1 (dsDNA) DNA 1: GCTCTAGTCGGTCAAAGGTCACACACTCGAAATGCGGCGATTGACAGCGTAGAATGAAGG DNA 2: CCTTCATTCTACGCTGTCAATCGCCGCATTTCGAGTGTGTGACCTTTGACCGACTAGAGC			6.91 PBM z-score against 500 random probes	8.22 PBM z-score against 500 random probes		12.4 PBM z-score against 500 random probes	8.95 PBM z-score against 500 random probes		6.67 PBM z-score against 500 random probes	8.36 PBM z-score against 500 random probes	
NRC3_wobSeed45_DR1_A20T_o1 (dsDNA) DNA 1: GCTGTCAAAGTTCAAAGGTTACGTAAGTATCCACACGCGATTGACAGCGTAGAATGAAGG DNA 2: CCTTCATTCTACGCTGTCAATCGCGTGTGGATACTTACGTAACCTTTGAACTTTGACAGC	6.87 PBM z-score against 500 random probes		6.95 PBM z-score against 500 random probes	8.47 PBM z-score against 500 random probes	5.93 PBM z-score against 500 random probes	9.98 PBM z-score against 500 random probes	9.74 PBM z-score against 500 random probes		7.17 PBM z-score against 500 random probes	7.83 PBM z-score against 500 random probes	5.55 PBM z-score against 500 random probes
NRC3_wobSeed38_DR1_T16A_o1 (dsDNA) DNA 1: GCCCTGCTAGGTCAAAGGTCAGCTAAAGCAGCTCGCGCGATTGACAGCGTAGAATGAAGG DNA 2: CCTTCATTCTACGCTGTCAATCGCGCGAGCTGCTTTAGCTGACCTTTGACCTAGCAGGGC	6.86 PBM z-score against 500 random probes		6.82 PBM z-score against 500 random probes	8.86 PBM z-score against 500 random probes	5.81 PBM z-score against 500 random probes	12.7 PBM z-score against 500 random probes	10 PBM z-score against 500 random probes			8.54 PBM z-score against 500 random probes	5.62 PBM z-score against 500 random probes
NRC3_random_hg19_59_o1 (dsDNA) DNA 1: GCCAGTTCAAGACCAGCCTGGCCAACATGGTGAAACGCGATTGACAGCGTAGAATGAAGG DNA 2: CCTTCATTCTACGCTGTCAATCGCGTTTCACCATGTTGGCCAGGCTGGTCTTGAACTGGC				-0 PBM z-score against 500 random probes		0.03 PBM z-score against 500 random probes			0.49 PBM z-score against 500 random probes		
NRC3_wobSeed49_DR2_C27T_o1 (dsDNA) DNA 1: GCCAAACTAGGTCAAGAGGTCAAAGTTCGCTTCCCGGCGATTGACAGCGTAGAATGAAGG DNA 2: CCTTCATTCTACGCTGTCAATCGCCGGGAAGCGAACTTTGACCTCTTGACCTAGTTTGGC	6.88 PBM z-score against 500 random probes	6.55 PBM z-score against 500 random probes	6.92 PBM z-score against 500 random probes	8.47 PBM z-score against 500 random probes		11 PBM z-score against 500 random probes		7.82 PBM z-score against 500 random probes			
